The target in this experiment is T1, GLP methyltransferase (Homo sapiens, UniProt Q9H9B1).
T1 construct: purchased Cayman Chemical 10755
T1 sequence (Q9H9B1 1-1298): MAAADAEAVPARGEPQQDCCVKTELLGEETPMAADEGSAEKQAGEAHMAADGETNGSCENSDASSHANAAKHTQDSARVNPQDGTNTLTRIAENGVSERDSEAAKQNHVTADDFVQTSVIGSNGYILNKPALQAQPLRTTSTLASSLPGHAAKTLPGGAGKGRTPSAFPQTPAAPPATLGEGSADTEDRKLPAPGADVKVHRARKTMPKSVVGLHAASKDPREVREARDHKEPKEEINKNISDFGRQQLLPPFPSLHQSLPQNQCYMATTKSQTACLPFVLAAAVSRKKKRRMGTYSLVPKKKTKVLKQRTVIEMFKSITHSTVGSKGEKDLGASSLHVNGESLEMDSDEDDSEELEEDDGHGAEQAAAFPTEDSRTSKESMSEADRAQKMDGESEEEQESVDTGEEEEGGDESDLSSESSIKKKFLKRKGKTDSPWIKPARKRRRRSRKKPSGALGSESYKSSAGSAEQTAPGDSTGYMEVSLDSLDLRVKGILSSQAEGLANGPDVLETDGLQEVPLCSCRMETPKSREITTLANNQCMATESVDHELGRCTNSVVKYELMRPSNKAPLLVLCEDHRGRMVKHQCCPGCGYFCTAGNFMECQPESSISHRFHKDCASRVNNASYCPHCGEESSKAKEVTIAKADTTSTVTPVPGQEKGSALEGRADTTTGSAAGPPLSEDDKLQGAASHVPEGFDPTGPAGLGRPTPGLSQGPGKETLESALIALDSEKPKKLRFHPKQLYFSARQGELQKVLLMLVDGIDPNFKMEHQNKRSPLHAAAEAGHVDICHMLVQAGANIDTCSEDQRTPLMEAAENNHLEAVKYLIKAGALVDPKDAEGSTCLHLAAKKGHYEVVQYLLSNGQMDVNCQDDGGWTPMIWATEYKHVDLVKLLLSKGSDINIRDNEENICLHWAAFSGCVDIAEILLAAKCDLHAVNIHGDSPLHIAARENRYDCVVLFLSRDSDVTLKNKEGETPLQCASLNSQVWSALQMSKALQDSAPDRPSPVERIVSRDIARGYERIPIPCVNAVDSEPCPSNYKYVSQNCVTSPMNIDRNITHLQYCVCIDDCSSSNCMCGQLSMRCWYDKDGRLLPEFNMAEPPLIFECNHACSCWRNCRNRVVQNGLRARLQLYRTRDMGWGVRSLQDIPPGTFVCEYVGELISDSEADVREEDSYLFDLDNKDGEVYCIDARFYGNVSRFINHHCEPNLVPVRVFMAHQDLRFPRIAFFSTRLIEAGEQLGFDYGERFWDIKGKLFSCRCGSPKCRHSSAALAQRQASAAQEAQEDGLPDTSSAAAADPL
The experiment can be described thus: In vitro methylation of unmodified H1.0 peptide with GLP, products by LC-MS. It is filed as biochemical. The note with it: LC-MS spectral counts; 10U GLP, 3.2 mM S-Adenosyl-L-Methionine, 37° C. 1 hour. The method, then:
In order to identify the precise sites of methylation by G9A and GLP methyltransferases on histone H1.0, in vitro methylation assays were performed and subsequently analyzed by Liquid Chromatography and High-resolution Mass Spectrometry (LC-MS) analysis. Methylation reactions were set up using either G9A methyltransferase (NEB, M0235S, Lot #0031201) or GLP methyltransferase (Cayman Chemical, 10755). The methyl donor in each reaction was unlabeled S-Adenosyl-L-Methionine (NEB, B9003S). […]
For the Liquid Chromatography and High-resolution Mass Spectrometry (LC-MS) analysis, samples were prepared as described above and about 1 μg o the product was injected onto a Thermo Scientific Easy nLC system configured with a 10 cm×100 um trap column and a 25 cm×100 um ID resolving column. […] This ensured optimal full-scan data for quantification. […]
Protein identification was performed using Thermo Scientific Proteome Discoverer version 1.4 (including Sequest and Percolator algorithms) using RefSeqHuman sequence database. […] Protein quantification was performed using Pinpoint version 1.4 software. The Pinpoint quantification workflow included importing the Proteome Discoverer .msf files as spectral libraries. Identified peptides were subsequently quantified in MS .raw files using the Pinpoint peak finding, chromatographic alignment and area calculation algorithms. […]

Ends that are not written are not given here.

The record followed here is US10921324B2, “Compositions and methods related to the methylation of histone H1.0 protein” (Aelan Cell Technologies, Inc., priority 2016, dated 2021).

As to “AKPVKASKPKKAKPVKPK (not fully specified (N-terminus); listed as Homo sapiens) [unmethylated H1.0 peptide, unmodified H1.0 peptide substrate for in vitro methylation]”, the “H1.0K180 dimethylated, % of all peptides” value was determined as 96.6%.
